Data published in patent publication US20250276082A1 (INNOLAKE BIOPHARMA HANGZHOU, published 2025).
Residue numbers refer to the chain shown, from its start. Values belong to the binder of their own block, whether it stands above or below them.

What was measured:
[1] = biological target: T1, Human B7H3 extracellular domain and mFc fusion protein (B7H3-ECD-mFc) (human, UniProt Q5ZPR3 29-466); experiment: ELISA, B7H3-mFc protein (table title), humanized IgG1
T1 construct: extracellular domain; also called B7H3-mFc; B7H3-mFc Protein; not shown: mouse Fc (mFc)
T1 sequence (looked up): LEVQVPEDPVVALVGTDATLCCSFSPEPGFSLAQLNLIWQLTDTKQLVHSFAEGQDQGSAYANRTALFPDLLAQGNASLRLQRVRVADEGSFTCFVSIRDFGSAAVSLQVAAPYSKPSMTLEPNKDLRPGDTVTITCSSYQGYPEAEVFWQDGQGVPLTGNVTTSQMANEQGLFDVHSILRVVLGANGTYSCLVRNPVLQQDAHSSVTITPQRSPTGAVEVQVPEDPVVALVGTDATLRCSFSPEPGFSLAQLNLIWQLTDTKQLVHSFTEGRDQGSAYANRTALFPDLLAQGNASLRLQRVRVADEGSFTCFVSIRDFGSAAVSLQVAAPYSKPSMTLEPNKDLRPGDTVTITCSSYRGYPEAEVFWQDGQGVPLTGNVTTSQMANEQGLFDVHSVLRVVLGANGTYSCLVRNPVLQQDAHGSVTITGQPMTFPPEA

[2] = biological target: T2, B7H3 on the cell surface (PC9 cells; 293T-B7H3 cells) (UniProt Q5ZPR3 29-534, limits assumed); experiment: FACS, cell surface B7H3 (PC9 cells per FIG. 10)
T2 construct: whole, on cells; both carry B7H3 on the surface; also called Cell Surface B7H3; B7H3 protein in PC9 cells
T2 sequence (looked up): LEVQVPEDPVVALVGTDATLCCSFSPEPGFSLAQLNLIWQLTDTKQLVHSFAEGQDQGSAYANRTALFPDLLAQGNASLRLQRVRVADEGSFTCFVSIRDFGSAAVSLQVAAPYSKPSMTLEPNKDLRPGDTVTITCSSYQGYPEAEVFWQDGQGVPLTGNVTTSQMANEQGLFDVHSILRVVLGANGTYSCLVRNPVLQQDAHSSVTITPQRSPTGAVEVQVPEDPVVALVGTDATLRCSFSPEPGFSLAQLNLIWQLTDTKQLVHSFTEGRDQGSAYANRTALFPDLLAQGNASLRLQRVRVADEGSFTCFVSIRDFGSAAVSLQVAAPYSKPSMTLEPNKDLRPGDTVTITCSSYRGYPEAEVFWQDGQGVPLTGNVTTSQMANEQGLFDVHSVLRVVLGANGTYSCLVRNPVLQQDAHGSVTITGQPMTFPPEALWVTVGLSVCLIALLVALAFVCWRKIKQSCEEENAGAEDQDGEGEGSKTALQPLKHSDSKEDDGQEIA

- EC50 [1]: 0.00384 µg/mL
- EC50 [2]: 0.0143 µg/mL
B1: hu15A2 (antibody, IgG1, V domains shown)
VH: QVQLVQSGAEVKKPGASVKVSCKASGYTFTSYDINWVRQATGQGLEWIGWIDPGDGSTKYNEKFKGRATLTANKSISTAYMELSSLRSEDTAVYYCVRRGFDYWGQGTLVTVSS
VL: EIVLTQSPATLSLSPGERATLSCRTSSSVSYLHWFQQKPGQAPRLWIHDTSNLASGFPARFSGSGSGTDYTLTISSLEPEDFAVYYCHQRSSYPWTFGGGTKVEIK
notes: expressed in 293 cells; also called humanized antibody 15A2

- EC50 [1]: 0.0127 µg/mL
- EC50 [2]: 0.0621 µg/mL
B5: hu5B6 (antibody, IgG1, V domains shown)
VH: QVQLVQSGAEVKKPGSSVKVSCKASGYTFITYTIHWVRQAPGQGLEWIGYINPTSDYANFNQKFKDRATLTADKSTSTAYMELSSLRSEDTAVYYCARWGTTVFQFYFDYWGQGTLVTVSS
VL: EIVLTQSPATLSLSPGERATLSCRASQSLSYINWYQQKPGKAPKPWIYATSSLQSGVPSRFSGSASGTDYTLTISSLQPEDFATYYCQHWSSDPPTIGGGTKVEIK
notes: expressed in 293 cells; also called humanized antibody 5B6; humanized 5B6

- EC50 [1]: 0.00635 µg/mL
- EC50 [2]: 0.0113 µg/mL
B6: hu7B7 (antibody, IgG1, V domains shown)
VH: EVQLVESGGGLVKPGGSLRLSCAASGFTFSSYAVSWVRQAPGKGLEWVASISGGGIYIYYPDSVKGRFTISRDNAKNSLYLQMNSLRAEDTAVYYCARHGGAGYFDYWGQGTLVTVSS
VL: DSQMTQSPSSLSASVGDRVTITCRGSESVHSYLAWYQQKPGKAPKLLVYNAKTLQSGVPSRFSGSGSGTDFTLTISSLQPEDFATYYCQQHYGSPPWTFGGGTKVEIK
notes: expressed in 293 cells; also called humanized antibody 7B7

Further lines, the binder ahead of its results:

B2: hu2A9 (antibody, IgG1, V domains shown)
VH: QVQLVQSGAEVKKPGASVKVSCKTSGYTFTEYIMHWVRQAPGQGLEWIGGINPNSGGTTYNEKFKGRATLTVDKSISTAYMELSRLRSDDTAVYYCARRMPYWYFDVWGQGTMVTVSS
VL: EIVLTQSPATLSLSPGERATLSCSASSSVSYIHWYQQKPGQAPRRWVYDTSKLASGIPARFSGSGSGTDYTLTISSLEPEDFAVYYCQQWVSNPLTFGQGTKLEIK
notes: expressed in 293 cells; also called humanized antibody 2A9; humanized 2A9
- EC50 [1]: 0.0175 µg/mL
- EC50 [2]: 0.14 µg/mL

B3: hu4F11 (antibody, IgG1, V domains shown)
VH: QVQLVQSGAEVKKPGASVKVSCKTSGYTFTEYIMHWVRQAPGQGLEWIGGINPNTGGITYNQKFKDRATLTVDKSISTAYMELSRLRSDDTAVYYCARAGGNFLWYFDVWGQGTMVTVSS
VL: B2 VL with I32M, V47L, V91N
notes: expressed in 293 cells; also called humanized antibody 4F11; humanized 4F11
- EC50 [1]: 0.0406 µg/mL
- EC50 [2]: 0.127 µg/mL

B4: hu9C8 (antibody, IgG1, V domains shown)
VH: QVQLVQSGAEVKKPGASVKVSCKASGYTFTEYTIHWVRQAPGQGLEWIGGINPNSGGTTYNLKFKGRATLTVDKSTSTVYMELSSLRSEDTAVYYCARKEGFFTTDYWGQGTLVTVSS
VL: B2 VL with I2T, V29L, V47I, K52N, S55T, V91H, S92Y, L95P, Q99G, L103V
notes: expressed in 293 cells; also called humanized antibody 9C8; humanized 9C8
- EC50 [1]: 0.0199 µg/mL
- EC50 [2]: 0.079 µg/mL
